The record followed here is PMC5405865.

The target of assay [1] is The RNCs, denoted FLN5+L (with L = 21 to 110). The assay is described as follows: co-purification with the RNC, western blot. Background: In western blotting, separated proteins are transferred to a membrane and probed.
A further assay concerns the target 70S ribosomes. Briefly: NMR titration.

Bounds are passed on as bounds.

In the case of “trigger factor (from UniProt P0A850 1-432) (natural protein)”, in assay [1], the occupancy of the purified RNCs is < 1.5%.
“FLN5∆12, 12-residue C-terminal truncation of isolated FLN5 (from UniProt P13466 646-738) (domain or fragment)” returned a reduction in resonance intensities with equimolar 70S ribosomes with 70S ribosomes of 30%.
As to “DnaK (from UniProt P0A6Y8 1-638) (natural protein)”, the occupancy of the purified RNCs in assay [1] is < 1.5%.
Substance “FLN5 Y719E, isolated unfolded variant of FLN5 (from UniProt P13466 646-750) (domain or fragment)” yielded a reduction in resonance intensities with equimolar 70S ribosomes in the assay with 70S ribosomes of 30%.
